{
  "source": "patent US20060272037A1",
  "about": "(JULIUS MAXIMILIANS UNIVERSITAT, published 2006)",
  "key": {"[1]": {"molecular_target": "PTH receptor-cam8 \"chameleon\" (human)", "T1 sequence (chain, as listed by the source limits assumed)": "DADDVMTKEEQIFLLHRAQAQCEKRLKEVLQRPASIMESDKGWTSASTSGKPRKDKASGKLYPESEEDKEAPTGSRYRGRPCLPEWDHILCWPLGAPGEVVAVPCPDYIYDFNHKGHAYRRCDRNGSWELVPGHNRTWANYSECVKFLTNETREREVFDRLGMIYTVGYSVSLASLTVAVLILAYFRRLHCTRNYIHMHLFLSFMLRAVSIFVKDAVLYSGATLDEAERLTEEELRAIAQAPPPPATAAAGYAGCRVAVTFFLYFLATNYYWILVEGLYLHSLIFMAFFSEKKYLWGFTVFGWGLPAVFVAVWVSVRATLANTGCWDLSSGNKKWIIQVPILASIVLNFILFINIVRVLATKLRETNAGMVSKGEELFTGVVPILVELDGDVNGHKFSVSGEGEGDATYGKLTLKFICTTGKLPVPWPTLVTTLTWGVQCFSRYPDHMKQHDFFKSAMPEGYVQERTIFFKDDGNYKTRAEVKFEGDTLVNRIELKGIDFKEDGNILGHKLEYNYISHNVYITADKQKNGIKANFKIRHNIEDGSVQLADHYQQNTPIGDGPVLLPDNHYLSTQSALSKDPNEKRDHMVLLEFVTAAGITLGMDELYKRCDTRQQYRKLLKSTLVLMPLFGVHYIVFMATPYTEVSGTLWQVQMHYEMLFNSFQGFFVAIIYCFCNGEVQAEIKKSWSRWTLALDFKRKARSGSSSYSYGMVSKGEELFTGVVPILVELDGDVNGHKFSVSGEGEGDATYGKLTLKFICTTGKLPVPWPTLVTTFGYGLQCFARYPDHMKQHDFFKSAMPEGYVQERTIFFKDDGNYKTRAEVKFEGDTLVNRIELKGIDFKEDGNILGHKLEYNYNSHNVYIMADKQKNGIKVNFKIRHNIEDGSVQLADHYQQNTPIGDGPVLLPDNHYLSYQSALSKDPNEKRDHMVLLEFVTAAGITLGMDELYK", "assay": "cell-based or functional assay"}, "[2]": {"molecular_target": "T1, PTH receptor-cam8 \"chameleon\" (human)", "T1 construct": "Stably expressed in HEK293 cells; also tested in membranes made from these cells; also called PTHR-cam; PTHR-cam8", "assay": "competition ligand binding, receptor stably expressed in HEK293 cells"}},
  "data": [
    {"binder": "SVSEIQLMHNLGKHLNSMERVEWLRKKLQDVHNF (peptide, UniProt P01270 32-65, looked up)", "note": "[parathyroid hormone (PTH)]", "values": [
      {"measurement": "EC50 of signalling to adenylyl cyclase", "setting": "[1]", "result": 12.8, "unit": "nM"},
      {"measurement": "Ki", "setting": "[2]", "result": 15.5, "unit": "nM"}
    ]}
  ]
}
